Data taken from patent EP4707393A1, “DOUBLE-STRANDED SIRNA, CONJUGATE THEREOF AND USE THEREOF” (CMS Research & Development Pte. Ltd., priority 2023, dated 2024).

Experiments:
[1] = test system: human LPA gene (Genbank number: NM_005577.4); assay: Inhibitory activity against LPA mRNA, psiCHECK-2 dual-luciferase reporter vector in Huh7 cells; assay type: cell-based; conditions: Huh7 cells transfected with LPA_psiCHECK-2 plasmid, RNAiMAX transfection
Procedure: A stock solution was prepared by dissolving in PBS and stored at -20 °C.
The human LPA gene (Genbank number: NM_005577.4) was cloned into the psiCHECK™-2 vector.
Huh7 cells were cultured in DMEM (Gibco-11995-065, 500 mL) medium, supplemented with FBS (ExCellBio-FSP500, 57 mL), Penicillin-Streptomycin solution (Hyclone-SV30010, 5.7 mL), GlutaMAX™ (Gibco-35050-061, 5.7 mL) and Non-Essential Amino Acids Solution (Gibco-11140050, 5.7 mL).
On Day 1, a method for transfection of the LPA_PSICHECK (TM)-2 plasmid is briefly described as follows: Huh7 cells were washed with DPBS, followed by digestion with 0.05% trypsin, gently pipetted into single cells in DMEM containing 10% FBS, and counted. Plasmid DNA was transferred into Huh7 cells using Fugene HD. The transfected cells were seeded into 96-well plates at a density of 10,000 cells per well, with 100 µL culture medium per well. The cells were incubated overnight in a 5% CO2 incubator at 37 °C.
On Day 2, the test compounds were diluted serially with PBS to 3 concentrations.
RNAiMAX transfection reagent was prepared by blending homogeneously with Opti-MEM at a ratio of RNAiMAX: Opti-MEM=3:47 in a 15 mL centrifuge tube as needed. The compounds were mixed with the RNAiMAX/Opti-MEM (1:1) and incubated for 15 min. The compound-containing RNAiMAX/Opti-MEM mixture was diluted 10-fold with fresh medium and blended homogeneously.
The medium in each well was aspirated, and then 100 µL of the fresh compound-containing medium was added, and then incubated in a 5% CO2, 37 °C incubator.
Experimental procedures refer to DUAL-GLO® Dual Luciferase Assay System instructions, briefly described as follows: Taking out the cells from the incubator, aspirating and discarding the supernatant, adding 75µL fresh culture medium and 75µL detection reagent, shaking for 10 minutes in the dark, and after the cells had been fully lysed, transfering100µL sample to an opaque whiteboard for detecting the Firefly luminescence signal; adding 50 µL Dual-Glo®Stop & Glo® test reagent to each well and detecting the Renilla luciferase signal after shaking for 10 minutes in the dark. The ratio of the reporter signal to the internal control reporter signal was calculated for each well.
[formula] % Inhibition = (1-Sampleratio/RNAiMAXcontrolratio) × 100% [formula]

hPBMCs = assay: Immunogenicity test in hPBMCs (IL-6 and TNF-α ELISA of supernatant); assay type: cell-based, human; conditions: donor 1 hPBMCs, 18-20 h
Procedure: 1 Experimental material • 1.1 Double-stranded siRNA conjugates • 1.2 hPBMCs, purchased from Shanghai Sailybio Medical Co., LTD. • 1.3 Main reagents: Penicillin-Streptomycin (Cat. No.: 15140122), RNase-free water (Cat. No.: AM9938), IL-6 ELISA kit (Cat. No.: 555220), TNF-α ELISA kit (Cat. No.: 555212), LPS (Cat. No.: L2630), etc. 2 Experimental method • 2.1 Compound Preparation: Compounds were prepared as stock solutions with enzyme-free water. Compound weight = powder weight * purity. The concentration of prepared solutions was 900 µg/mL, followed by three-fold serial dilution with enzyme-free water. Each concentration was diluted 10-fold with 1640 medium, resulting in a final enzyme-free water content of 5.0%. • 2.2 Experimental procedure: • 2.2.1 PBMC cells were resuscitated one day in advance and incubated overnight in 1640 complete medium. • 2.2.2 On the day of the experiment, PBMC cells were centrifuged at 300 × g for 8 minutes, and the cell density was adjusted to 1.6 × 10^6 mL with 1640 complete medium. The cells were then added to a 96-well plate, 125 µL per well, and incubated in a 37 °C, 5% CO2 incubator for 15 minutes. • 2.2.3 The diluted test compounds were added to the 96-well plate according to the plate map, all in duplicate, 125 µL for each well; the positive control group and the blank group were added with an equal volume of 1640 complete culture medium containing the same amount of enzyme-free water. • 2.2.4 After gently shaking, the well plates were incubated in an incubator at 37 °C for 18-20 h. The supernatant was collected by centrifugation, and secretions of TNF-α and IL-6 were detected by ELISA. • 2.2.5 Data were analyzed using GraphPad Prism 8 software. 3 Experimental results Table 10. IL-6 and TNF-α levels in the cell supernatant of donor 1 hPBMCs treated with different doses of test compounds

Substance	EC50 [1] [pM]	IL-6 (hPBMCs; 5 µg/mL) [pg/mL]	TNF alpha (hPBMCs; 5 µg/mL) [pg/mL]	IL-6 (hPBMCs; 15 µg/mL) [pg/mL]	TNF alpha (hPBMCs; 15 µg/mL) [pg/mL]	IL-6 (hPBMCs; 45 µg/mL) [pg/mL]	TNF alpha (hPBMCs; 45 µg/mL) [pg/mL]
Z1: siRNA conjugate: sense SEQ ID NO:27, ligand D08 at 3' end of sense strand, antisense SEQ ID NO:56 (sense CCCTTATTGTTATACG; antisense ATCCCTCGTANAACAATAAGGGGCTGTT; 2'-OMe/2'-F modified, ligand at sense 3' end, full pattern not given here)	120						
Z2: siRNA conjugate: sense SEQ ID NO:28, ligand D08 at 3' end of sense strand, antisense SEQ ID NO:56 (sense CCCCTTATTGTTATAC; antisense ATCCCTCGTANAACAATAAGGGGCTGTT; 2'-OMe/2'-F modified, ligand at sense 3' end, full pattern not given here)	480						
Z6: siRNA conjugate: sense SEQ ID NO:27, ligand D08 at 3' end of sense strand, antisense SEQ ID NO:57 (sense CCCTTATTGTTATACG; antisense TCGTANAACAATAAGGGGCTGTT; ligand D08 at sense 3' end; listed as RNA; modified_base 1..2: mod_base = OTHER; note = 2'-O-methylcytidine; modified_base 3: mod_base = OTHER; modified_base 4: mod_base = OTHER; note = 2'-O-methyluridine; modified_base 5: mod_base = OTHER; note = 2'-fluorou; modified_base 1: mod_base = OTHER; note = E-type vinylphosphonate-modified 2'-O-methyluridine; modified_base 2: mod_base = OTHER; note = 2'-fluorocytidine; note = 2'-O-methylguanosine; modified_base 4: mo)	420						
Z7: siRNA conjugate: sense SEQ ID NO:27, ligand D08 at 3' end of sense strand, antisense SEQ ID NO:58 (sense CCCTTATTGTTATACG; antisense TCGTANAACAATAAGGGGCTGTT; ligand D08 at sense 3' end; listed as RNA; modified_base 1..2: mod_base = OTHER; note = 2'-O-methylcytidine; modified_base 3: mod_base = OTHER; modified_base 4: mod_base = OTHER; note = 2'-O-methyluridine; modified_base 5: mod_base = OTHER; note = 2'-fluorou; modified_base 1: mod_base = OTHER; modified_base 2: mod_base = OTHER; note = 2'-fluorocytidine; note = 2'-O-methylguanosine)	2410						
Z38: siRNA conjugate: sense SEQ ID NO:49, ligand D01 at 3' end of sense strand, antisense SEQ ID NO:77 (sense CAGCCCCTTATTGTTATACGA; antisense NCGTATNACAATAAGGGGCNGTT; ligand D01 at sense 3' end; listed as RNA; modified_base 1: mod_base = OTHER; note = 2'-O-methylcytidine; modified_base 2: mod_base = OTHER; note = 2'-O-methyladenosine; modified_base 3: mod_base = OTHER; note = 2'-O-methylguanosine; modified_base 4..7: mod_base = OTHER; note = 2'-O-me; note = n is mDVPU; note = 2'-deoxycytidine; modified_base 4: mod_base = OTHER; note = 2'-O-methyluridine;)		1281.4	33.5	1257.1	34.8	1268.3	34.4
Z39: siRNA conjugate: sense SEQ ID NO:49, ligand D21 at 3' end of sense strand, antisense SEQ ID NO:77 (sense CAGCCCCTTATTGTTATACGA; antisense NCGTATNACAATAAGGGGCNGTT; ligand D21 at sense 3' end; listed as RNA; modified_base 1: mod_base = OTHER; note = 2'-O-methylcytidine; modified_base 2: mod_base = OTHER; note = 2'-O-methyladenosine; modified_base 3: mod_base = OTHER; note = 2'-O-methylguanosine; modified_base 4..7: mod_base = OTHER; note = 2'-O-me; note = n is mDVPU; note = 2'-deoxycytidine; modified_base 4: mod_base = OTHER; note = 2'-O-methyluridine;)		1333.6	31.4	1304.8	32.6	1297.0	33.3
Z44: siRNA conjugate: sense SEQ ID NO:51, ligand D01 at 3' end of sense strand, antisense SEQ ID NO:82 (sense CCTGCCAAGCTTGGTCATCTA; antisense NAGATGNCCAAGCTTGGCNGGTT; ligand D01 at sense 3' end; listed as RNA; modified_base 1..2: mod_base = OTHER; note = 2'-O-methylcytidine; modified_base 3: mod_base = OTHER; note = 2'-O-methyluridine; modified_base 4: mod_base = OTHER; note = 2'-O-methylguanosine; modified_base 5..6: mod_base = OTHER; note = 2'-O-m; modified_base 1: mod_base = OTHER; note = n is mDVPU; modified_base 2: mod_base = OTHER; note = 2'-deoxyadenosine; note = 2'-O-methyladenosi)		1326.7	34.6	1331.0	35.2	1354.7	35.8
Z45: siRNA conjugate: sense SEQ ID NO:50, ligand D01 at 3' end of sense strand, antisense SEQ ID NO:82 (sense CCTGCCAAGCTTGGTCATCTA; antisense NAGATGNCCAAGCTTGGCNGGTT; ligand D01 at sense 3' end; listed as RNA; modified_base 1..2: mod_base = OTHER; note = 2'-O-methylcytidine; modified_base 3: mod_base = OTHER; note = 2'-O-methyluridine; modified_base 4: mod_base = OTHER; note = 2'-O-methylguanosine; modified_base 5..6: mod_base = OTHER; note = 2'-O-m; modified_base 1: mod_base = OTHER; note = n is mDVPU; modified_base 2: mod_base = OTHER; note = 2'-deoxyadenosine; note = 2'-O-methyladenosi)		1327.5	35.3	1321.5	35.1	1321.4	34.9
